Here are results for five molecules from publication PMC7027753, “Interaction of N‐acetyl‐L‐glutamate kinase with the PII signal transducer in the non‐photosynthetic alga Polytomella parva: Co‐evolution towards a hetero‐oligomeric enzyme” (The Febs Journal, 2019).

In series [1] the target is T1, PpaPII-CrNAGK complex.
T1 construct: gene NAGK; heterologous two-species complex, mixed equimolar: His6-CrNAGK and PpaPII from residue 50 with C-terminal Strep tag; NAGK holds arginine, PII holds glutamine
Nature of the series: coupled pyruvate kinase / lactate dehydrogenase NADH assay, […] nm. The class given is biochemical, Chlamydomonas reinhardtii (NAGK); Polytomella parva (PII). The note with it: activation of complex inhibited by 0.12 mM arginine; 50 mM NAG, 5 mM ATP, pH 7.5; Gln site in PII Q-loop, allosteric.

Series [2] addresses Polytomella parva PII protein (Polytomella parva). The experiment in a line: SEC-MALS; Superose 6 Increase 10/300 GL; 10 mM Tris pH 7.8, 300 mM NaCl, 2 mM MgCl2, 0.02% NaN3, 2% glycerol; proteins alone or PII mixed in excess with NAGK (4 : 1 monomeric concentrations), with or without 5 mM glutamine; fractions checked by SDS/PAGE. (SEC sorts molecules by how far they enter the pores of the column.)

Series [3] concerns the target Chlamydomonas reinhardtii NAGK protein (Chlamydomonas reinhardtii). Nature of the series: SPR; His6-NAGK immobilised on a Ni2+-loaded NTA chip (FC2), strep-tagged PII injected as analyte (50-1000 nM), 25 °C, HBS (10 mM HEPES, 150 mM NaCl, 2 mM MgCl2, 0.005% NP-40, pH 7.5), FC2-FC1; without effector molecules; Kd estimated from ΔRU.
In series [4] the target is Polytomella parva N-acetyl-L-glutamate kinase (Polytomella parva) (UniProt A6XGV3). The description is as above.
In series [5] the target is Chlamydomonas reinhardtii NAGK protein (Chlamydomonas reinhardtii). Nature of the series: SEC-MALS; Superose 6 Increase 10/300 GL; 10 mM Tris pH 7.8, 300 mM NaCl, 2 mM MgCl2, 0.02% NaN3, 2% glycerol; proteins alone or PII mixed in excess with NAGK (4 : 1 monomeric concentrations), with or without 5 mM glutamine; fractions checked by SDS/PAGE.
For another series, the target named is T2, CrNAGK (Chlamydomonas reinhardtii, UniProt A8HPI1).
T2 construct: gene CHLRE_01g015000v5; N-terminal His6 tag, E. coli LEMO-21(DE3), Ni-NTA; hexamer
T2 sequence (A8HPI1 44-340): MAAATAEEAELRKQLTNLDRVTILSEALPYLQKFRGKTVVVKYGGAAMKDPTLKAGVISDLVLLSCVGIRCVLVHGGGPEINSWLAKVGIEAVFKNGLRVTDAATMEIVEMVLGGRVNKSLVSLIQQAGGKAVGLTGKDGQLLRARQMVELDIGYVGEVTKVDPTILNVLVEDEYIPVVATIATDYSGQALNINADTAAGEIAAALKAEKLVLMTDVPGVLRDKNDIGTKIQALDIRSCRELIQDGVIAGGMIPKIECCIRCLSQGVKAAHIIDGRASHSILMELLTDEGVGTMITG
The experiment in a line: coupled pyruvate kinase / lactate dehydrogenase NADH assay, […] nm. Type of series: biochemical.

A further series has as its target T3, CrPII-CrNAGK (Chlamydomonas reinhardtii, UniProt A8HPI1).
T3 construct: gene CHLRE_01g015000v5; His6-CrNAGK and CrPII with C-terminal Strep tag, mixed equimolar; E. coli expressed; with Nitrogen regulatory protein P-II, chloroplastic (PII signal transducer)
The description is as above. Type of series: biochemical. As to conditions: read-out: Arg-IC50.

Series [6] has as its target T1, PpaPII-CrNAGK complex. Described as above. As to conditions: 50 mM NAG, 5 mM ATP, 20 mM MgCl2, pH 7.5; with PpaPII, no Gln; allosteric site of NAGK; unit implied in the sentence. The class given is biochemical, Chlamydomonas reinhardtii (NAGK); Polytomella parva (PII).
For the next series, the target named is T4, CrPII-PpaNAGK complex (Polytomella parva, UniProt A0A2K3DLS9+A6XGV3).
T4 construct: heterologous two-species complex, mixed equimolar: His6-PpaNAGK from residue 41 and CrPII with C-terminal Strep tag; NAGK holds arginine, PII holds 2-oxoglutarate
T4 sequence (A0A2K3DLS9 63-205, one chain of several): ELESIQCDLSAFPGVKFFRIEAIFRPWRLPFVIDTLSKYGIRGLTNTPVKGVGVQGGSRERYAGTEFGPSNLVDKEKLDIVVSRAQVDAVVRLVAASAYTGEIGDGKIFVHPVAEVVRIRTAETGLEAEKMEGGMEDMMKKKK
The series is described as above. The class given is biochemical.

Substrate in the series “purified protein”: CC(=O)N[C@@H](CCC(=O)O)C(=O)O
The experiment in a line: purified protein. As to conditions: 5 mM ATP, 20 mM MgCl2, 50 mM KCl, 50 mM imidazole pH 7.5, no arginine, no PII. Type of series: biochemical, Polytomella parva.

Series [7] concerns the molecule itself. Nature of the series: SEC-MALS; Superose 6 Increase 10/300 GL; 10 mM Tris pH 7.8, 300 mM NaCl, 2 mM MgCl2, 0.02% NaN3, 2% glycerol; proteins alone or PII mixed in excess with NAGK (4 : 1 monomeric concentrations), with or without 5 mM glutamine; fractions checked by SDS/PAGE.

For `NC(=O)CC[C@H](N)C(=O)O` [glutamine], at PpaPII-CrNAGK complex [1], the EC50 – broadly, the midpoint of the concentration-response curve – was determined as 1100 µM.
Consider “Polytomella parva PII protein (natural protein)”, for which, in [2], the stoichiometry N (as a rule, a count of units in the complex or per binding partner) came to 3. Besides, the Kd (as a rule, a measure of binding affinity in units of concentration) in [3] was 0.0863 µM. Moreover, in series [4], the Kd was 0.0938 µM, the percent of PpaPII-PpaNAGK complex dissociation from the sensor chip at 330 sec after the end of the injection phase (RU at 110 sec taken as 100%) was 60.7% and the percent of PpaPII-PpaNAGK complex dissociation from the sensor chip at 660 sec after the end of the injection phase (RU at 110 sec taken as 100%) was 41.9%.
Regarding “Chlamydomonas reinhardtii NAGK protein (enzyme)”, the stoichiometry N in series [5] was 6.
For `N=C(N)NCCC[C@H](N)C(=O)O` [arginine], the IC50 (commonly the midpoint of a concentration-inhibition curve) on CrNAGK is 120 ± 30 µM; on CrPII-CrNAGK it was 250 ± 10 µM; against PpaPII-CrNAGK complex [6], 70 ± 10 µM; at CrPII-PpaNAGK complex it was 680 ± 150 µM.

B1: Polytomella parva N-acetyl-L-glutamate kinase (enzyme, UniProt A6XGV3 41-329, looked up)
chain: TSDKKELTNLDRVTILSEALPYLQKFRGKTIVIKYGGAAMKDPTLKAGVITDLVLLNCVGIRTVLVHGGGPEINSWLSKVGIKPNFKNGLRVTDSATMDIVEMVLGGRVNKSLVSLIQQAGGRGVGLTGKDGQLLKARQMTELDIGHVGEVTKVDPTILNVMVNDGYIPVVATIASDPAGQALNINADTAAGEIAAALKAKKLVLMTDVPGVLRDKNDIKTKIHSLDIRGCRELIKDGIIAGGMIPKIECCIRCLAQGVDAAHIVDGRAKHSILMELLTDEGVGTMITG
notes: the full-length polypeptide has 329 amino acids; The discussion gives the transit peptide as 1-21, the results and methods as 1-40; also called PpaNAGK; NAGK; not shown: His6, N-terminal, kept
Turning to B1, in the series “purified protein”, the Km (usually the concentration of substrate that gives half-maximal velocity) is 2350 ± 220 µM; the kcat (commonly the number of substrate molecules converted per active site and unit of time at saturation) was 211.5 ± 4.1 s⁻¹. Further, in series [7], the “stoichiometry N” value worked out at 6.
